# From PMC9696088, “Alicyclobacillus mali FL18 as a Novel Source of Glycosyl Hydrolases: Characterization of a New Thermophilic β-Xylosidase Tolerant to Monosaccharides” (International Journal of Molecular Sciences, 2022)
# B1: AmβXyl (Alicyclobacillus mali (ex Roth et al. 2021)) (protein)
# chain: MYLDPAQSVDARVDALLADMTLEEKVAQLTSIWAFEILDDLRFSAEKAAAVLGQGIGQVTRIGGATNLDPPDVARLANQIQRYLRDHTRLGIPALIHEESCSGYMAKGATCFPQTIGIASTWDVDLAQRIGAIIRDQMRAVGARQALAPLLDVARDPRWGRVEETFGEDPYLVAQMGIAYVRGLQGEDLSQGVMATGKHFVGYGASEGGMNWAPAHIPERELREVYLFPFEAAVREAGLGAIMPGYHELDGVPCHDNPGLLRETLRGRWGFQGLVVSDYFAVNQLFEYHQVARDKAEAAALAVRAGVDVELPTRDVYGKPLIEAVARGLVSVAEIDELVRRVLTWKFRLGLFDHPFVDEGAAIAVFDNAEQRKVAREAAEKSLVLLKNDGLLPLAPRGTIAVIGPNAHTTRNLVGDYAYPCHIESLLEQSEDNVFQTPLPSGVKHVDEFIPMRTILEAIGHRVGSEAQVVYAKGCDVLEGEDADLDEAVALAAQSDVAVVVVGDRAGLTDACTTGESRDRATLSLIGRQEELVRRVLATGTKTVVVLVSGRPLAIPDIAERANAVLEAWLPGEEGAEAVAAVLFGDVNPSGKLPVTIPRSVGQVPIYYGHKPSGGRSHWKGAYVDESNLPLYPFGHGLSYTAFEYRDLTLSASELGVHGEIEVACVIENVGARAGEEVVQLYARDVAADVTRPVKVLCGFARVPLAPGEKARVRFRVSAHQFGFYNREMRYVVEPGEIEIMVGASSEDIRLRGMVRIHGAMTEIEHEKVYQSAVNVERM
# notes: synthetic codon-optimised gene in pET-30a(+) NcoI/HindIII, N-terminal His-tag; E. coli BL21 (DE3) RIL; ~89 kDa on SDS-PAGE, dimer ~177 kDa
# Columns and labels:
# [1] = biological target: AmβXyl, β-xylosidase (GH3) from Alicyclobacillus mali FL18 (Alicyclobacillus mali FL18); test: SEC-MALS; size-exclusion chromatography (S200 16/60) with triple-angle light scattering and QELS; 500 μg loaded; 100 mM NaCl, 25 mM sodium phosphate pH 7.5, 1 mM DTT; 0.5 mL/min
# [2] = substrate: O=[N+]([O-])c1ccc(O[C@@H]2OC[C@@H](O)[C@H](O)[C@H]2O)cc1; test: pNP release, A405 nm, Michaelis-Menten fit (GraphPad Prism); format: biochemical, Alicyclobacillus mali (ex Roth et al. 2021); conditions: 50 mM sodium citrate pH 5.6, 1 mM DTT, 80 °C, substrate 0.1-8.0 mM
# Source text: (§1) pNP release, A405 nm, Michaelis-Menten fit (GraphPad Prism) on AmβXyl
# [3] = substrate: O=[N+]([O-])c1ccc(O[C@@H]2O[C@@H](CO)[C@H](O)[C@H]2O)cc1; test: as above; format: biochemical, Alicyclobacillus mali (ex Roth et al. 2021); conditions: 50 mM sodium citrate pH 5.6, 1 mM DTT, 80 °C, substrate 0.1-8.0 mM
# Source text: as §1
Molecule,stoichiometry N [1],Km [2] [mM],kcat [2] [s⁻¹],kcat/Km [2] [M⁻¹ s⁻¹],Km [3] [mM],kcat [3] [s⁻¹],kcat/Km [3] [M⁻¹ s⁻¹]
"AmβXyl, β-xylosidase (GH3) from Alicyclobacillus mali FL18 (enzyme)",2,–,–,–,–,–,–
B1,–,0.52,1610,3.09e+06,10.56,2400,227000
